Experimental data: patent publication US20210054355A1 (NEW YORK UNIVERSITY, published 2021)

T1: FGF23 C-terminal tail peptide (FGF23^C-tail) (human)
T1 construct: The peptide may have been shorter, e.g. S180 to S205
T1 peptide: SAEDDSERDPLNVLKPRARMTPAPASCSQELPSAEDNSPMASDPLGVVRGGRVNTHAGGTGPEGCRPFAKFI

B1: Soluble human α-Klotho ectodomain (αKlotho^ecto) (receptor)
chain: EPGDGAQTWARVSRPPAPEAAGLFQGTFPDGFLWAVGSAAYQTEGGWQQHGKGASIWDTFTHHPLAPPGDSRNASLPLGAPSPLQPATGDVASDSYNNVFRDTEALRELGVTHYRFSISWARVLPNGSAGVPNREGLRYYRRLLERLRELGVQPVVTLYHWDLPQRLQDAYGGWANRALADHFRDYAELCFRHFGGQVKYWITIDNPYVVAWHGYATGRLAPGIRGSPRLGYLVAHNLLLAHAKVWHLYNTSFRPTQGGQVSIALSSHWINPRRMTDHSIKECQKSLDFVLGWFAKPVFIDGDYPESMKNNLSSILPDFTESEKKFIKGTADFFALCFGPTLSFQLLDPHMKFRQLESPNLRQLLSWIDLEFNHPQIFIVENGWFVSGTTKRDDAKYMYYLKKFIMETLKAIKLDGVDVIGYTAWSLMDGFEWHRGYSIRRGLFYVDFLSQDKMLLPKSSALFYQKLIEKNGFPPLPENQPLEGTFPCDFAWGVVDNYIQVDTTLSQFTDLNVYLWDVHHSKRLIKVDGVVTKKRKSYCVDFAAIQPQIALLQEMHVTHFRFSLDWALILPLGNQSQVNHTILQYYRCMASELVRVNITPVVALWQPMAPNQGLPRLLARQGAWENPYTALAFAEYARLCFQELGHHVKLWITMNEPYTRNMTYSAGHNLLKAHALAWHVYNEKFRHAQNGKISIALQADWIEPACPFSQKDKEVAERVLEFDIGWLAEPIFGSGDYPWVMRDWLNQRNNFLLPYFTEDEKKLIQGTFDFLALSHYTTILVDSEKEDPIKYNDYLEVQEMTDITWLNSPSQVAVVPWGLRKVLNWLKFKYGDLPMYIISNGIDDGLHAEDDQLRVYYMQNYINEALKAHILDGINLCGYFAYSFNDRTAPRFGLYRYAADQFEPKASMKHYRKIIDSNGFPGPETLERFCPEEFTVCTECSFFHTRKS
notes: also called wild-type αKlotho^ecto; soluble αKlotho
B2: FGF23^ΔHBS (FGF23^WT carrying R140A/R143A) (ligand)
chain: YPNASPLLGSSWGGLIHLYTATARNSYHLQIHKNGHVDGAPHQTIYSALMIRSEDAGFVVITGVMSRRYLCMDFRGNIFGSHYFDPENCRFQHQTLENGYDVYHSPQYHFLVSLGAAKAAFLPGMNPPPYSQFLSRRNEIPLIHFNTPIPRQHTQSAEDDSERDPLNVLKPRARMTPAPAS
B3: FGFR1c^ecto/ΔHBS (FGFR1c^ecto carrying K160Q/K163Q) (receptor)
chain: DNTKPNRMPVAPYWTSPEQMEQKLHAVPAAKTVKFKCPSSGTPNPTLRWLKNGKEFKPDHRIGGYKVRYATWSIIMDSVVPSDKGNYTCIVENEYGSINHTYQLDVVERSPHRPILQAGLPANKTVALGSNVEFMCKVYSDPQPHIQWLKHIEVNGSKIGPDNLPYVQILKTAGVNTTDKEMEVLHLRNVSFEDAGEYTCLAGNSIGLSHHSAWLTVLEALEER
notes: also called FGFR1c^ΔHBS
B4: FGFR1c^ecto/ΔSLBS (FGFR1c^ecto carrying I203E) (receptor)
chain: DNTKPNRMPVAPYWTSPEKMEKKLHAVPAAKTVKFKCPSSGTPNPTLRWLKNGKEFKPDHREGGYKVRYATWSIIMDSVVPSDKGNYTCIVENEYGSINHTYQLDVVERSPHRPILQAGLPANKTVALGSNVEFMCKVYSDPQPHIQWLKHIEVNGSKIGPDNLPYVQILKTAGVNTTDKEMEVLHLRNVSFEDAGEYTCLAGNSIGLSHHSAWLTVLEALEER
notes: also called FGFR1c^ΔSLBS
B5: FGFR1c^ecto/ΔHBS′ (FGFR1c^ecto carrying K207Q/R209Q) (receptor)
chain: DNTKPNRMPVAPYWTSPEKMEKKLHAVPAAKTVKFKCPSSGTPNPTLRWLKNGKEFKPDHRIGGYQVQYATWSIIMDSVVPSDKGNYTCIVENEYGSINHTYQLDVVERSPHRPILQAGLPANKTVALGSNVEFMCKVYSDPQPHIQWLKHIEVNGSKIGPDNLPYVQILKTAGVNTTDKEMEVLHLRNVSFEDAGEYTCLAGNSIGLSHHSAWLTVLEALEER
notes: also called FGFR1c^ΔHBS′
B6: FGFR1c^ecto/ΔSLBS′ (FGFR1c^ecto carrying V221D) (receptor)
chain: DNTKPNRMPVAPYWTSPEKMEKKLHAVPAAKTVKFKCPSSGTPNPTLRWLKNGKEFKPDHRIGGYKVRYATWSIIMDSVDPSDKGNYTCIVENEYGSINHTYQLDVVERSPHRPILQAGLPANKTVALGSNVEFMCKVYSDPQPHIQWLKHIEVNGSKIGPDNLPYVQILKTAGVNTTDKEMEVLHLRNVSFEDAGEYTCLAGNSIGLSHHSAWLTVLEALEER
notes: also called FGFR1c^ΔSLBS′
B7: FGFR1c^ecto/ΔRRBS (FGFR1c^ecto carrying A171D) (receptor)
chain: DNTKPNRMPVAPYWTSPEKMEKKLHAVPADKTVKFKCPSSGTPNPTLRWLKNGKEFKPDHRIGGYKVRYATWSIIMDSVVPSDKGNYTCIVENEYGSINHTYQLDVVERSPHRPILQAGLPANKTVALGSNVEFMCKVYSDPQPHIQWLKHIEVNGSKIGPDNLPYVQILKTAGVNTTDKEMEVLHLRNVSFEDAGEYTCLAGNSIGLSHHSAWLTVLEALEER
notes: also called FGFR1^ΔRRBS

Tests used:
[1] = target: T1, FGF23 C-terminal tail peptide …; assay: fluorescence dye-based thermal shift assay (SYPRO Orange), 1:1 mixture; over the peak of αKlotho^ecto alone the sheet prints 48 [left]
Description: Fluorescence Dye-Based Thermal Shift Assay: SYPRO Orange dye (#S6650, ThermoFisher Scientific, USA) was used as the fluorescent probe. 15 μl of 20 μM solutions of protein samples (wild-type and mutated forms of FGF23; αKlotho^ecto or αKlotho^{ecto/ΔRBA} alone; 1:1 mixtures of αKlotho^ecto or αKlotho^{ecto/ΔRBA} with FGF23 C-terminal tail peptide) were mixed with 5 μl of working dye solution (1:25 dilution) in duplicate in PCR strips. A temperature gradient from 4° C. to 100° C. at 1° C./minute increment was carried out with a CFX96 Touch™ Real-Time PCR Detection System (Bio-Rad, USA). Fluorescence was recorded as a function of temperature in real time. The melting temperature (Tm) was calculated with StepOne software v2.2 as the maximum of the derivative of the resulting SYPRO Orange fluorescence curves.

[2] = target: B1; assay: SEC-MALS, 1:1:1 mixture with FGFR1c^ecto and αKlotho^ecto
Description: (§1) A Superdex 200 10/300 GL column (GE Healthcare, USA) was placed in-line between the HPLC pump (Waters 1525) and the HPLC UV (Waters 2998 Photodiode Array), laser light scattering, and refractive index detectors. Light scattering and refractive index detectors were calibrated following the manufacturer's guidelines. The refractive index increment (dn/dc) in which n is the refractive index and c is the concentration of the mixture of DDM and CHS in 20 mM Tris-HCl pH 8.0 buffer containing 300 mM NaCl, was determined offline using an Optilab T-rEX refractive index detector. Monomeric bovine serum albumin (#23210, Thermo Scientific, USA) was used as part of routine data quality control.
(§2) 60 ml or more of 25 mM HEPES pH 7.5 buffer containing 150 mM NaCl were passed through the system at a flow rate of 0.5 mL/min to equilibrate the Superdex 200 10/300 GL column and establish stable baselines for light scattering and refractive index detectors. Purified αKlotho^ecto, FGER1c^ecto (wild type or mutant), and FGF23 (wild type or mutant) proteins were mixed at a molar ratio of 1:1:1 and concentrated to 12.5 μM. 50 μl of protein samples with a molar equivalent of a heparin hexasaccharide (#H006, Iduron, Manchester, U.K.) were injected onto the gel filtration column, and the column eluent was continuously monitored for 280 nm absorbance, laser light scattering, and refractive index. […]

[3] = target: B3; assay: SEC-MALS of the 1:1:1 mixture with αKlotho^ecto and heparin hexasaccharide; the two proteins are seen together in the ternary complex [panel B]
Description: as §1, §2

[4] = target: B5; assay: as above
Description: as §1, §2

[5] = target: B1; assay: SEC-MALS, 1:1:1 mixture with FGF23 and αKlotho^ecto
Description: as §1
60 ml or more of 25 mM HEPES pH 7.5 buffer containing 150 mM NaCl were passed through the system at a flow rate of 0.5 mL/min to equilibrate the Superdex 200 10/300 GL column and establish stable baselines for light scattering and refractive index detectors. Purified αKlotho^ecto, FGER1c^ecto (wild type or mutant), and FGF23 (wild type or mutant) proteins were mixed at a molar ratio of 1:1:1 and concentrated to 12.5 μM. 50 μl of protein samples with a molar equivalent of a heparin hexasaccharide (#H006, Iduron, Manchester, U.K.) were injected onto the gel filtration column, and the column eluent was continuously monitored for 280 nm absorbance, laser light scattering, and refractive index. In a separate set of experiments, 50 μl of 1:1:1 FGF23-FGFR1c^ecto-αKlotho^ecto ternary complex at 12.5 μM concentration was mixed with heparin hexasaccharide at molar ratios of 1:0.25, 1:0.5, 1:1, or 1:2, and the mixtures were injected onto the gel filtration column. 50 μl of ternary complex without added heparin hexasaccharide were run as a control. In yet another set of experiments, αKlotho^ecto (wild type or mutant) and FGER1c^ecto were mixed at a molar ratio of 1:1, and 50 μl of concentrated protein mixtures were injected onto the gel filtration column. 50 μl of concentrated αKlotho^ecto (wild type or mutant) alone were run as a control in these experiments. The analyses were performed at ambient temperature. Data were collected every second at a flow rate of 0.5 ml/min.

Row | Binder | binding result [5] | further results
1 | B1 |  | melting temperature (peak of derivative fluorescence) of the mixture [1]: 54 °C
2 | B2 |  | binding result [2]: binds; binding result [3]: binds; binding result [4]: binds
3 | B3 | binds | 
4 | B4 | binds | 
5 | B5 | binds | 
6 | B6 | binds | 
7 | B7 | binds | 
